Molecular target: 35S-cysteine-labelled 26 kD proTNFα (in vitro transcribed/translated)

B1: TNFα convertase purified from HL60 cell membrane fraction (identified as PR-3) (protein)
chain: IVGGHEAQPHSRPYMASLQMRGNPGSHFCGGTLIHPSFVLTAAHCLRDIPQRLVNVVLGAHNVRTQEPTQQHFSVAQVFLNNYDAENKLNDVLLIQLSSPANLSASVATVQLPQQDQPVPHGTQCLAMGWGRVGAHDPPAQVLQELNVTVVTFFCRPHNICTFVPRRKAGICFGDSGGPLICDGIIQGIDSFVIWGCATRLFPDFFTRVALYVDWIRSTLR
  cleavage of 26 kD proTNFα to the 17 kD mature form: The purified convertase was shown to cleave the 26 kD proTNFα to the 17 kD mature form.

From US6586222
